System: MS2 coat protein
Experiment: apparent KD of MS2 coat protein; designed switch direction (-1 OFF switch, 1 ON switch): -1; higher = weaker reporter binding
Method in brief: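 Designed RNA switches sharing common flanks were transcribed on Illumina chips by stalled E. coli RNA polymerase. They were titrated with SNAP-549-labelled MS2 coat protein, from 0.7 or 1.5 nM doubling to 3 µM, in Tris-HCl pH 7.5 buffer with KCl, MgCl2, BSA, DTT, tRNA and Tween-20. Titrations ran without input, with 200 uM small-molecule ligand, or with an oligonucleotide input. The apparent KD of each design is the median over its clusters, after curve-fitting of normalised cluster fluorescence.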

[1] = input ligand: microRNA oligo, concentration not stated
[2] = Eterna round: R95, input ligand: FMN 200 uM
[3] = Eterna round: R95, input ligand: microRNA oligo, concentration not stated
[4] = Eterna round: R95, input ligand: none

Sequence | apparent KD of MS2 coat protein (input ligand: FMN 200 uM) | apparent KD of MS2 coat protein [1] | apparent KD of MS2 coat protein (input ligand: none) | apparent KD of MS2 coat protein [3] | also measured
UUCGUGUAAGGAUAUACGACCCAUCCCAUUGGGAUGGGCACGUAGAAGGUACAUGAGGAUCACCCAUGUGCUCC [Ceacequa] (Eterna round: R96, puzzle: Exclusion 4) | 298 nM | 34.4 nM | 41.4 nM | – | –
UUCUAUUCAGGAUAUACAUGAGGAUCACCCAUGUGAUUUGCCUCGCGGAAGACUAGACGUAGAAGGGAGUCCCU [Eternabot (L2) Solution 7] (Eterna round: R97, puzzle: Exclusion 3) | 91.3 nM | – | 111 nM | – | –
UUCUCGUCAGGAUAUUUGUUGUUGUUGGAAACGGCGGCGGCGGAGAAGGGACAUGAGGAUCACCCAUGUCUGGU [-27.7, -24.8 kcal, 20% A] (Eterna round: R97, puzzle: Exclusion 4) | 28.5 nM | – | 21.2 nM | – | –
UUGAAGUCGUCAGGAUAUAGUUUUAAUGUCAUGCGUAUGUUCUUACAUGAGGAUCACCCAUGUCGCUAGAAGGGACUAAAGAUU [JR_ExcNG2_Sub010] (Eterna round: R96, puzzle: Exclusion NG 2) | 43.9 nM | 33.4 nM | 44.4 nM | – | –
UUGAUUCAUUCCUCCAUAAACAUGAGGAUCACCCAUGUAAGUGAGGAUAUAGUUGGAGUAGUAUACUAGAAGGCACUUAGAUAU [JR_ExcNG3_Sub047] (Eterna round: R96, puzzle: Exclusion NG 3) | – | 8.77 nM | – | – | –
UUGCAGUCGUCAGGAUAUAGUAUUACGGCCUUUCAUUUCUUCAUACAUGAGGAUCACCCAUGUCGCUAGAAGGGCUUAUCGCUU [salish99_ExNG2_r04_108] (Eterna round: R96, puzzle: Exclusion NG 2) | – | 11.1 nM | – | – | –
UUGUAAUGAUUAGGAUAUUAUUAAUAGAACUUUAUGAUAUACAUGAGGAUCACCCAUGUUACUUAUAAGAAGGAAUCGUAUUAU [JR_ExcNG2_Sub092] (Eterna round: R96, puzzle: Exclusion NG 2) | – | 15.7 nM | – | – | –
UUGUGCACGCUGCGGUCCUACAUGAGGAUCACCCAUGUGGUCUGGUGGCGUGGGUCGCCGGACUUGGCUCGUCUUGA [salish99_S_TOV1_R5_027] (Eterna round: R97, puzzle: Sensor, turn-off variant 1) | 18.4 nM | – | 18.8 nM | – | –
UUGUUACAUGAGGAUCACCCAUGUGAGGAUAUGGCCCGCCCGGCGUGAGCUGGUUUUGUCAGAAGGCGCAUAGG [salish99_ex1_r4_024] (Eterna round: R97, puzzle: Exclusion 1) | 79.6 nM | – | 54.2 nM | – | –
UUGUUAUAUGUAGGAUAUGCAUAUUAUUAUUAUGCAGAAGGACAUGAGGAUCACCCAUGUGUAUUAUUAUUAUAUAUUAUAUAU [Title] (Eterna round: R96, puzzle: Exclusion NG 1) | – | 17.4 nM | – | – | –
UUGUUGUAUGUAGGAUAUGCAUAUUAUUAUUGUGCAGAAGGACAUGAGGAUCACCCAUGUAUAUUAUUAUUAUAUGUUAUAUAU [Title] (Eterna round: R96, puzzle: Exclusion NG 1) | – | 22.1 nM | – | – | –
UUGUUGUAUGUAGGAUAUGCAUGUUAUUAUUAUGCAGAAGGACAUGAGGAUCACCCAUGUGUAUUAUUAUUAUAUAUUAUAUAU [Title] (Eterna round: R96, puzzle: Exclusion NG 1) | – | 15.4 nM | – | – | –
UUGUUGUAUGUAGGAUAUGCGUAUUAUUAUUGGGCAGAAGGACAUGAGGAUCACCCAUGUAUGUUGUUGUUAUAUAUUAUAUAU [Title] (Eterna round: R96, puzzle: Exclusion NG 1) | 66.4 nM | 35.8 nM | 47.8 nM | – | –
UUGUUGUGUGUAGGAUAUGCAUAUUAUUAUUAUGCAGAAGGACAUGAGGAUCACCCAUGUAUAUUAUUAUUAUAUAUUAUAUAU [Title] (Eterna round: R96, puzzle: Exclusion NG 1) | – | 22.6 nM | – | – | –
UUUAAUGGAAUUAAGAUCACAUGAGGAUCACCCAUGUAUAUAUAGGAUAUCAGCUCGUUUAGAGCUGAGAAGGAUAUAUACAUA [ExNG3/6-B2] (Eterna round: R96, puzzle: Exclusion NG 3) | 90.1 nM | 119 nM | 356 nM | – | –
UUUAAUUUUUUUUUUUUACAAGCUUUUUGCUCGUCUUAUACAUGAGGAUCACCCAUGUAGAUGGGAAAUGAAUUAUC [JMF 98] (puzzle: Sensor v3, turn-off variant 2) | – | – | – | 144 nM | apparent KD of MS2 coat protein [2]: 26.1 nM; apparent KD of MS2 coat protein [4]: 22.7 nM
UUUAAUUUUUUUUUUUUACAAGCUUUUUGCUCGUCUUAUACAUGAGGAUCACCCAUGUGAAUGGAGGAUAAAUUAUC [JMF 30] (puzzle: Sensor v3, turn-off variant 2) | – | – | – | 33.1 nM | apparent KD of MS2 coat protein [2]: 29.5 nM; apparent KD of MS2 coat protein [4]: 26 nM
UUUAAUUUUUUUUUUUUACAAGCUUUUUGCUCGUCUUAUACAUGAGGAUCACCCAUGUGAGUGGAAGGUAAAUUAUC [JMF 69] (puzzle: Sensor v3, turn-off variant 2) | – | – | – | 18 nM | apparent KD of MS2 coat protein [2]: 12.6 nM; apparent KD of MS2 coat protein [4]: 11.8 nM
UUUAAUUUUUUUUUUUUACAAGCUUUUUGCUCGUCUUAUACAUGAGGAUCACCCAUGUGGGUGAGGAGUAAAUUAUC [JMF 61] (puzzle: Sensor v3, turn-off variant 2) | – | – | – | 19.1 nM | apparent KD of MS2 coat protein [2]: 37.9 nM; apparent KD of MS2 coat protein [4]: 66.7 nM

Sequence | apparent KD of MS2 coat protein (input ligand: FMN 200 uM) | apparent KD of MS2 coat protein [1] | apparent KD of MS2 coat protein (input ligand: none) | apparent KD of MS2 coat protein [3] | also measured
UUUAGUUCAGGAUAUGUAGAUUUUAACAUGAGGAUCACCCAUGUAGAUCCUGAAUUAACUACAGAAGGGAGCAUUU [Mod of Brourd 16 - Jieux - Exclusion 5] (Eterna round: R97, puzzle: Exclusion 5) | 33.6 nM | – | 18.4 nM | – | –
UUUAGUUCAGGAUAUGUAGAUUUUAACAUGAGGAUCACCCAUGUAGAUCCUGAUCCUGCUACAGAAGGGAAAAUUU [Mat - Exclusion 5 - Eli Mod - D9] (Eterna round: R97, puzzle: Exclusion 5) | 24.4 nM | – | 25.6 nM | – | –
UUUAUAUAGUAAGGAUAUGUAUUAUUUCUAUCAACAGAAGGUACUGACAUGAGGAUCACCCAUGUUUUAGUGUGGGCAUGUAGU [JMF's solution 97] (Eterna round: R96, puzzle: Exclusion NG 1) | – | 200 nM | – | – | –
UUUCAACAUGAGGAUCACCCAUGUCAGGAUAUCAUUUAGCUCAUACACUUACCAUCAUUGAGAAGGGACAUGCU [Colors] (Eterna round: R97, puzzle: Exclusion 1) | 15.7 nM | – | 19 nM | – | –
UUUCUCGUUGUGAGGAUAUCGUUUUUGUUUUGGAUCGAGAAGGCACAUGAGGAUCACCCAUGUUUGUUGUGGUU [JR_BMOE4_Sub088] (puzzle: Brourd's mod of Exclusion 4) | – | – | – | 93.3 nM | –
UUUGGCAGAGGAUAUACAUGAGGAUCACCCAUGUAUAAGUGGGAUGCGUGCAAAUACUGUAGAAGGCUGCCUCU [Eternabot (L2) Solution 66] (Eterna round: R97, puzzle: Exclusion 3) | 50.1 nM | – | 73 nM | – | –
UUUGUAUAGCAAGGAUAUGUUUAAUUAUAGUUGCCUCAUACAUGAGGAUCACCCAUGUUUUACUUACAGAAGGUGCAAUGAUUU [JR_ExcNG2_Sub035] (Eterna round: R96, puzzle: Exclusion NG 2) | – | 242 nM | – | – | –
UUUUAACAUGAGGAUCACCCAUGUGAGGAUAUCGAAAUUUAUAUUAAUAUUAAUUUAUCGAGAAGGCACAUUUU [JMF 32] (puzzle: Exclusion 1) | – | – | – | 108 nM | –
UUUUAACAUGAGGAUCACCCAUGUGAGGAUAUCGAAAUUUAUAUUAAUAUUAUUAAUUCGAGAAGGCACAUUUU [JMF 37] (puzzle: Exclusion 1) | – | – | – | 126 nM | –
UUUUAACAUGAGGAUCACCCAUGUGAGGAUAUCGAAAUUUAUAUUAAUAUUAUUAUUACGAGAAGGCACAUUUU [JMF 42] (puzzle: Exclusion 1) | – | – | – | 69.3 nM | –
UUUUAACAUGAGGAUCACCCAUGUGAGGAUAUCGAAAUUUAUAUUAAUAUUAUUUAAACGAGAAGGCACAUUUU [JMF 43] (puzzle: Exclusion 1) | – | – | – | 70.4 nM | –
UUUUAACAUGAGGAUCACCCAUGUGAGGAUAUCGAAAUUUAUAUUAAUAUUUAUAAAACGAGAAGGCACAUUUU [JMF 51] (puzzle: Exclusion 1) | – | – | – | 78.6 nM | –
UUUUAACAUGAGGAUCACCCAUGUGAGGAUAUCGAAAUUUAUAUUUAUAUUAAUUAUACGAGAAGGCACAUUUU [JMF 86] (puzzle: Exclusion 1) | – | – | – | 65.5 nM | –
UUUUAACAUGAGGAUCACCCAUGUGAGGAUAUCGAAAUUUAUAUUUAUAUUAAUUUAUCGAGAAGGCACAUUUU [JMF 88] (puzzle: Exclusion 1) | – | – | – | 166 nM | –
UUUUACCAAGGAUAUACAUUUUUUUUAUUAUUUUCAUUAUAACAUGAGGAUCACCCAUGUAGAAGGUGGAUUUU [My Design] (puzzle: Exclusion 2) | – | – | – | 59.6 nM | –
UUUUACGAAGGAUAUACAUUUUUUUUAUUAUUUUCAUUAUUACAUGAGGAUCACCCAUGUAGAAGGUCGAUUUU [My Design] (puzzle: Exclusion 2) | – | – | – | 27.7 nM | –
UUUUAGAGAGGAUAUAUAAUGUGAAACAUGAGGAUCACCCAUGUAAUAUUAUGGAUGUAAAUAGAAGGCUCAAUUA [Mat - Exclusion 5 - JL mod - D13] (puzzle: Exclusion 5) | – | – | – | 30.4 nM | apparent KD of MS2 coat protein [2]: 28.5 nM; apparent KD of MS2 coat protein [4]: 26.3 nM
UUUUAGUCAGGAUAUACAUUUUUUUAUUUAUUUAUAAUAUUACAUGAGGAUCACCCAUGUAGAAGGGACAUUUU [My Design] (puzzle: Exclusion 2) | – | – | – | 29.6 nM | –
UUUUCAUAUGAAGGAUAUACUUAACAUGAGGAUCACCCAUGUGGUGUUGUGAGUGAGUGAGUUUAGUAGAAGGUCAAGUAUUUU [JMF's solution 48] (Eterna round: R96, puzzle: Exclusion NG 2) | 805 nM | 304 nM | 304 nM | – | –
